Biological target: Xwnt-8 (Xenopus) (UniProt P28026)
Experiment: cell-based or functional assay

Chain of UniProt P28026 (P28026 23-358 limits assumed): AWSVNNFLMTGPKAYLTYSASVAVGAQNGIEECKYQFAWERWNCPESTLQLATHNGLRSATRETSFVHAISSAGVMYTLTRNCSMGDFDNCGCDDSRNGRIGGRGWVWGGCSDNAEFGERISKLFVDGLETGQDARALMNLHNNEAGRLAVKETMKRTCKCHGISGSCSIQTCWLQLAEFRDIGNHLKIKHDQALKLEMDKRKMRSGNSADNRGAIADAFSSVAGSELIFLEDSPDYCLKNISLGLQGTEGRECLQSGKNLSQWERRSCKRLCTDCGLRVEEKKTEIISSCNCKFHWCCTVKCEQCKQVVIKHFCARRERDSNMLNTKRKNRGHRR

embryos with secondary axes after injection of frzb-1 mRNA (animal blastomeres) and Xwnt-8 mRNA (vegetal-ventral blastomere); Xwnt-8 alone gave complete secondary axes in 67% of the embryos (n=53): 14%
Substance: frzb-1 (Xenopus, expressed from injected mRNA)
